Reference: patent publication US20220387578A1 (VANDERBILT UNIVERSITY, published 2022)

T1: eHead_H1_v3.1_mC
T1 chain: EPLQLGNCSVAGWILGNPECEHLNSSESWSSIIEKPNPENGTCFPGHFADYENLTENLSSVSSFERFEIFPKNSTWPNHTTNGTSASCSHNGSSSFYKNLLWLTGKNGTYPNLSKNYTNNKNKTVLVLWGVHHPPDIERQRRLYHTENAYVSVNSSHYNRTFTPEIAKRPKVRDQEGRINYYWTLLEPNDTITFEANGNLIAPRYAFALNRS

B1: FluA20 (as used in the SPR experiments of Example 4) (antibody, V domains shown)
VH: QVQLQESGPGLVKPSETLSLTCSVSGVSVTSDIYYWTWIRQPPGKGLEWIGYIFYNGDTNYNPSLKSRVTMSIDTSKNEFSLRLTSVTAADTAVYFCARGTEDLGYCSSGSCPNHWGQGTLVTVSS
VL: DIQMTQSPSSLSASIGDRVTITCRPSQNIRSFLNWFQHKPGKAPKLLIYAASNLQSGVPSRFSGSGSGTEFTLTIRSLQPEDFATYYCQQSYNTPPTFGQGTKVEIK
B2: FluA20_UCA (as used in the SPR experiments of Example 4) (antibody, V domains shown)
VH: QVQLQESGPGLVKPSETLSLTCTVSGGSVSSGSYYWSWIRQPPGKGLEWIGYIYYSGSTNYNPSLKSRVTISVDTSKNQFSLKLSSVTAADTAVYYCARGTEDLGYCSGGSCPNHWGQGTLVTVSS
VL: not shown

Target: T1, eHead_H1_v3.1_mC
Assay: SPR

| Binder | Kd [nM] |
| --- | --- |
| B1 | 2.8 |
| B2 | 220 |
